Laboratory results: patent publication US20090023152A1 (published 2009)

T1: RFX5 (human, UniProt P48382 2-616)
T1 construct: also called RFX5 subunit of RFX
T1 sequence (looked up): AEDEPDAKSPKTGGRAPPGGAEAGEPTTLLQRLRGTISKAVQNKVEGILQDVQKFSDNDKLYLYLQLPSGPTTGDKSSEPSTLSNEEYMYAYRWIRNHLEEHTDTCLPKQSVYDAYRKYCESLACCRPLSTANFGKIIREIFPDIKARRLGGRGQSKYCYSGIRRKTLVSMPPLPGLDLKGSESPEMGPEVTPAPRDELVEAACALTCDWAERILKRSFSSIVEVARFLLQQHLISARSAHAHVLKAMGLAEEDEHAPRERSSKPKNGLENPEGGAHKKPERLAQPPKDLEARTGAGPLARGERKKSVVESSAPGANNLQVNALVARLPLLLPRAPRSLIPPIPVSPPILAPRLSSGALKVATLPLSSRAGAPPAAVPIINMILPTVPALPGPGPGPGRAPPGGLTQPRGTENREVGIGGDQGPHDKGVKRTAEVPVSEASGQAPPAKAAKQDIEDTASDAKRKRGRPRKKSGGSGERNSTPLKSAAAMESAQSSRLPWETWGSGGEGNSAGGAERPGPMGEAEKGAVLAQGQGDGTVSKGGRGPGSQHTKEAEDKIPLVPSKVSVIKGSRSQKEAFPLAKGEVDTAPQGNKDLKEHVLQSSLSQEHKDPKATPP

B1: RFXAP (other, human, UniProt O00287 1-272, looked up)
chain: MEAQGVAEGAGPGAASGVPHPAALAPAAAPTLAPASVAAAASQFTLLVMQPCAGQDEAAAPGGSVGAGKPVRYLCEGAGDGEEEAGEDEADLLDTSDPPGGGESAASLEDLEDEETHSGGEGSSGGARRRGSGGGSMSKTCTYEGCSETTSQVAKQRKPWMCKKHRNKMYKDKYKKKKSDQALNCGGTASTGSAGNVKLEESADNILSIVKQRTGSFGDRPARPTLLEQVLNQKRLSLLRSPEVVQFLQKQQQLLNQQVLEQRQQQFPGTSM
notes: also called RFXAP subunit of RFX

Experiments:
[1] = target: MHC-II enhanceosome assembled on the DRA promoter fragment (human) (UniProt P48382); experiment: promoter pull-down from crude cell extracts, immunoblot
RFX5 = target: T1, RFX5; experiment: EMSA supershift of co-translated subunits on X box probe
RFXAP = target: B1; experiment: as above

| percent of the CIITA recruited [1] [%] | binding result (RFX5) | binding result (RFXAP) | Molecule |
| --- | --- | --- | --- |
| < 1 | – | – | CIITA (wild type) (from UniProt P33076 1-1130) |
| – | binds | – | B1 |
| – | binds | binds | FLAG-RFXANK (other, In vitro translated) DYKDDDDKMELTQPAEDLIQTQQTPASELGDPEDPGEEAADGSDTVVLSLFPCTPEPVNPEPDASVSSPQAGSSLKHSTTLTNRQRGNEVSALPATLDSLSIHQLAAQGELDQLKEHLRKGDNLVNKPDERGFTPLIWASAFGEIETVRFLLEWGADPHILAKERESALSLASTGGYTDIVGLLLERDVDINIYDWNGGTPLLYAVRGNHVKCVEALLARGADLTTEADSGYTPMDLAVALGYRKVQQVIENHILKLFQSNLVPADPE |
